Measured values from PMC4599338 (Microbial Cell Factories, 2015).

B1: AC (VHH)
VHH: DVQLQASGGGLVQPGGSLRLTCAASGLIFGSYAMGWFRQAPGKAREFVAAISWSGGDTYADSVKGRFTISRDNAKNTVYLQMNSLEPEDTAVYSCAAVGSKYYISKDAKDYGYWGQGTQVTVSS
B2: sdAb clone L1-G2 (VHH)
VHH: EVQLQASGGGLVQAGGSLRLSCTASGRAFSTTNMGWFRQAPGKEREFVTRVNWSGGVTSYADSVKGRFTLSRDNTKNTVYLQMDSLKPEDTAVYYCAGSTVWSTDRKHYNYWGQGTQVTVSS
B3: sdAb clone L1-G2+neg (VHH)
VHH: EVQLVESGGGLVQDGDSLRLSCTASGRAFSTTNMGWFRQAPGKEREFVCRVNWSGGVTSYADSVKGRFTCSRDNTKNTVYLQMDSLKPEDTAVYYCAGSTVWSTDRKHYNYWGQGTQVTVSS
B4: sdAb clone L1-G2+ (VHH)
VHH: EVQLQASGGGLVQAGGSLRLSCTASGRAFSTTNMGWFRQAPGKEREFVCRVNWSGGVTSYADSVKGRFTCSRDNTKNTVYLQMDSLKPEDTAVYYCAGSTVWSTDRKHYNYWGQGTQVTVSS
B5: sdAb clone L1-G2+neg2 (VHH)
VHH: EVQLVESGGGLVQDGDSLRLSCTASGRAFSTTNMGWFRQAPGKEREFVCRVNWSGGVTSYADSVKGRFTCSADNTKNTVYLQMDSLKPEDTAVYYCAGSTVWSTDRKHYNYWGQGTQVTVSS

These binders were tested against Staphylococcal enterotoxin B (Staphylococcus aureus, strain , UniProt P01552) (assay: not given). Conditions: not given.
B1: binds.

What follows are binders tested against Vaccinia Virus, Western Reserve, L1R Protein with C-Terminal Histidine Tag, Recombinant from baculovirus (Vaccinia virus, Western Reserve, UniProt P07612) (assay: SPR; […] (100 to 0 nM, […], dissociation 600 s; […]; Langmuir model; […]). Conditions: both partners purified.
With B2 the Kd was 1.1 nM, the koff was 0.00063 s⁻¹ and the kon was 580000 M⁻¹ s⁻¹. For B3, the Kd was 3.3 nM, the koff was 0.0014 s⁻¹ and the kon was 420000 M⁻¹ s⁻¹. B4 showed a Kd of 2.4 nM, a koff of 0.0013 s⁻¹ and a kon of 590000 M⁻¹ s⁻¹. B5 was tested, and the Kd was 23 nM, the koff was 0.013 s⁻¹ and the kon was 540000 M⁻¹ s⁻¹.
